Legend:
[1] = target: Sc-Rad2-ΔSC (complex I construct) (Saccharomyces cerevisiae, UniProt P07276 1-986, del112-731;del987-1031); assay: X-ray crystallography; non-productive complex; DNA largely disordered, backbone contacts H2TH of one subunit; Crystallization at room temperature, protein:DNA 1:1.2, 10 mg/ml protein; protein in 20 mM HEPES pH 7.5, 150 mM KCl, 5 mM Ca acetate, 5% glycerol, 0.5 mM TCEP (complex I: 150 mM NaCl); point-mutant cleavage assays without a binding read-out not listed; conditions: protein: recombinant; tags: 6xHis-SUMO cleaved; two additional N-terminal residues left; chain copies: 2; duplex 12-15 bp with overhangs
Sc-Rad2-ΔSC [2] = target: T1, Sc-Rad2-ΔSC (Saccharomyces cerevisiae, UniProt P07276 2-986, del112-731;del987-1031); assay: X-ray crystallography, 2.4 Å; Ca2+ at active site; K+ at H2TH; Crystallization at room temperature, protein:DNA 1:1.2, 10 mg/ml protein; protein in 20 mM HEPES pH 7.5, 150 mM KCl, 5 mM Ca acetate, 5% glycerol, 0.5 mM TCEP (complex I: 150 mM NaCl); point-mutant cleavage assays without a binding read-out not listed; conditions: protein: recombinant; tags: 6xHis-SUMO removed by SENP; N-terminal Gly2 after cleavage; chain copies: 2; 15 bp with 1 nt overhangs on all four ends
Sc-Rad2-ΔSC [3] = target: T1, Sc-Rad2-ΔSC; assay: X-ray crystallography, 2.7 Å; Ca2+ at active site; K+ at H2TH; Crystallization at room temperature, protein:DNA 1:1.2, 10 mg/ml protein; protein in 20 mM HEPES pH 7.5, 150 mM KCl, 5 mM Ca acetate, 5% glycerol, 0.5 mM TCEP (complex I: 150 mM NaCl); point-mutant cleavage assays without a binding read-out not listed; conditions: protein: recombinant; tags: 6xHis-SUMO removed by SENP; N-terminal Gly2 after cleavage; chain copies: 2; 15 bp with 4 nt overhangs on all four ends
Sc-Rad2-ΔSC [4] = target: T1, Sc-Rad2-ΔSC; assay: X-ray crystallography, 2.1 Å; Ca2+ at active site; K+ at H2TH; Crystallization at room temperature, protein:DNA 1:1.2, 10 mg/ml protein; protein in 20 mM HEPES pH 7.5, 150 mM KCl, 5 mM Ca acetate, 5% glycerol, 0.5 mM TCEP (complex I: 150 mM NaCl); point-mutant cleavage assays without a binding read-out not listed; conditions: protein: recombinant; tags: 6xHis-SUMO removed by SENP; N-terminal Gly2 after cleavage; chain copies: 2; 14 complementary bp with TT overhangs on all four ends; in crystal 15-mer duplex with one T-T mismatch, 1 nt overhangs at one end and 2 nt at the other
[5] = target: the molecule itself; assay: crystal structure; complex I: selenomethionine-labeled Rad2-ΔSC mixed with DNA at a 1:1.2 molar ratio, sitting-drop vapor diffusion, room temperature, reservoir 20% (v/v) ethylene glycol; space group P3(2)21, 2.75 Å

B1: complex I DNA (dsDNA)
DNA 1: AAAGCTCTGACTCAG
DNA 2: CTGAGTCAGAGCAAA
B1: binds [1].

B2: complex III DNA (dsDNA)
DNA 1: TGCTCCCTTGTCTCAGT
DNA 2: TCTGAGACAAGGGAGCT
B2: binds (Sc-Rad2-ΔSC [2]).

B3: complex IV DNA (dsDNA)
DNA 1: TTTTGCTCCCTTGTCTCAGTTTT
DNA 2: TTTTCTGAGACAAGGGAGCTTTT
B3: binds (Sc-Rad2-ΔSC [3]).

B4: complex II DNA (dsDNA)
DNA 1: TTAGGTGGACGGATCATT
DNA 2: TTTGATCCGTCCACCTTT
B4: binds (Sc-Rad2-ΔSC [4]).

B5: Sc-Rad2-ΔSC (Δ112-731, Δ987-1031) (enzyme, S. cerevisiae, UniProt P07276 1-986, looked up)
chain: MGVHSFWDIAGPTARPVRLESLEDKRMAVDASIWIYQFLKAVRDQEGNAVKNSHITGFFRRICKLLYFGIRPVFVFDGGVPVLKRETIRQRKERRQGKRESAKSTARKLLANTTLSTSAERNVAENAFVEDELFEQQMKDKRDSDEVTMDMIKEVQELLSRFGIPYITAPMEAEAQCAELLQLNLVDGIITDDSDVFLFGGTKIYKNMFHEKNYVEFYDAESILKLLGLDRKNMIELAQLLGSDYTNGLKGMGPVSSIEVIAEFGNLKNFKDWYNNGQFDKRKQETENKFEKDLRKKLVNNEIILDDDFPSVMVYDAYMRPEVDHDTTPFVWGVPDLDMLRSFMKTQLGWPHEKSDEILIPLIRDV
modifications: selenomethionine-labeled (complex I)
notes: Rad2, S. cerevisiae, spacer residues 112-731 removed and C-terminus (residues 987-1031) removed; The dimer is seen in crystal complex I together with disordered DNA; The same construct, not selenomethionine-labeled, stands in complexes II-IV; also called Sc-Rad-ΔSC; catalytic core of Rad2; source: E. coli BL21 (DE3) Rosseta, purified (HisTrap, SENP cleavage, second HisTrap, Superdex 200); …
B5: binds [5].

— PMC4176360, “Crystal structure of the catalytic core of Rad2: insights into the mechanism of substrate binding” (Nucleic Acids Research, 2014)
